Values of other authors, collected in article PMC7563123.

Assays:
[1] = biological target: Aβ1–40 Aβ1-40 (Homo sapiens) (UniProt P05067); assay: ligand binding assay
[2] = biological target: Aβ1–42 Aβ1-42 (Homo sapiens) (UniProt P05067); assay: ligand binding assay
Chain of Aβ1–42 Aβ1-42 (Homo sapiens) (P05067 1-42): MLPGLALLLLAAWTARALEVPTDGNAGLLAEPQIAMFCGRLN

Chain of 17β-HSD10 (Q99714 2-261): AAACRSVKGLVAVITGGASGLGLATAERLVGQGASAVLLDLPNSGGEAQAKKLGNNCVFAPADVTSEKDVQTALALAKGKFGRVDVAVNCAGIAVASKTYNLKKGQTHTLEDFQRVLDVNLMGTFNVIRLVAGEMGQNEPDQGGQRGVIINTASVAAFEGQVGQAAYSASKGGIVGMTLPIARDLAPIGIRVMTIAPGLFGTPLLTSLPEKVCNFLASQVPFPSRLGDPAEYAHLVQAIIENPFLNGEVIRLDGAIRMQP
Chain of Aβ1–40 Aβ1-40 (Homo sapiens) (P05067 1-40): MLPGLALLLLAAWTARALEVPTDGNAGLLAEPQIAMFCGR

For 17β-HSD10 (from UniProt Q99714), the Kd [1] is listed as 38.4 nM and the Kd [2] is listed as 55.8 nM.
